Assay results: patent US9574185B2, “Cold-adapted protease derived from Pseudoalteromonas arctica PAMC 21717 and uses thereof” (KOREA INSTITUTE OF OCEAN SCIENCE & TECHNOLOGY, priority 2014, dated 2017)

Columns and labels:
W-Pro21717 [1] = experiment: Reactions of W-Pro21717 with various protease inhibitors; assay type: biochemical, Pseudoalteromonas arctica PAMC 21717; details: for Residual activity (%): residual activity of W-Pro21717, inhibitor 1 mM
Description: The reaction solution was centrifuged, and then filtered through a filter having a pore size of 0.45 μm, and the filtrate was mixed and reacted with Folin & Ciocalteu's phenol solution and 500 mM sodium carbonate solution at 37° C. for 30 minutes. Next, the enzymatic activity of the reaction product was measured at 660 nm based on an L-tyrosine standard curve, and an amino acid production of 1 nmole/min/mg at 25° C. was defined as the activity of 1 unit of protease.
The kind of W-Pro21717 was analyzed by reactions with various protease inhibitors.

W-Pro21717 [2] = experiment: Activity and stability of W-Pro21717 in the presence of metal ions and surfactants; assay type: biochemical, Pseudoalteromonas arctica PAMC 21717; details: 1 mM, on ice for 1 hour
Description: In order to analyze the influence of metal ions and detergents, W-[…] was allowed to react with a standard buffer containing 1 mM BaCl2, CuSO4, MgSO4, CaCl2, ZnSO4, FePO4, KCl, NaCl, […], sodium linear alkylbenzene sulfonate (LAS) or SDS on ice for 1 hour. In addition, the compatibility of W-[…] with a commercial detergent (LG Household & Health Care, Korea; containing subtilisin Carlsberg) was analyzed using skim milk at temperatures of 10° C. or and 30° C.

[3] = Substrate specificity of R-Pro21717, synthetic peptide (oligo molecule) substrates; assay type: biochemical
Description: (§1) The substrate specificity of W-Pro21717 was analyzed using 5 mM of each of the following 7 different synthetic peptides: N-succinyl-Ala-Ala-Val-p-nitroanilide (AAV), N-succinyl-Ala-Ala-Pro-Leu-p-nitroanilide (AAPL), N-succinyl-Ala-Ala-Ala-p-nitroanilide (AAA), N-succinyl-Gly-Gly-Phe-p-nitroanilide (GGF), N-succinyl-Thr-Leu-Val-p-nitroanilide (TLV), N-succinyl-Ala-Ala-Pro-Phe-p-nitroanilide (AAPF), and N-succinyl-Ala-Ala-Val-Ala-p-nitroanilide (AAVA). W-Pro21717 was allowed to react with a standard buffer containing 0.83 mM substrate at 25° C. for 10 minutes, and then the relative activity thereof was measured at 410 nm.
In this Example, the activity of the R-Pro21717 protease in the presence of synthetic peptide substrates was analyzed.

azocasein [4] = experiment: Activity of R-Pro21717 as a function of temperature and pH; assay type: biochemical
Description: (§2) In order to determine a temperature optimal for the activity of the protease, R-Pro21717 was allowed to react at varying temperatures of 0˜70° C., and then analyzed. The stability of R-Pro21717 against temperature was analyzed by allowing R-Pro21717 at varying temperatures of 0˜70° C. for 1 hour, and then allowing R-Pro21717 to react a 0.65% azocasein-containing standard buffer at 30° C. for 30 minutes. As a control enzyme, Carlsberg subtilisin was used.
(§3) In order to determine a pH optimal for the activity of the protease, R-Pro21717-containing buffers having varying pHs were allowed to react at 30° C., and then analyzed. The stability of R-Pro21717 against pH was analyzed by allowing R-Pro21717-containing buffers having varying pHs to react on ice for 1 hour, and then reacting R-Pro21717 in 0.65% azocasein-containing standard buffer at 30° C. for 30 minutes. Carlsberg subtilisin was used as a control enzyme and analyzed at a reaction temperature of 40° C.

[5] = Substrate specificity of W-Pro21717 with synthetic peptides (p-nitroanilides, 410 nm); assay type: biochemical; details: 25° C., 10 minutes
Description: as §1

[6] = Stability of W-Pro21717 as a function of temperature and pH; assay type: physicochemical; details: after a reaction at 40° C. for 1 hour
[7] = Activity of W-Pro21717 as a function of temperature and pH; assay type: biochemical; details: range 0 to 60° C. tested
Description: A temperature optimal for the activity of W-Pro21717 was analyzed in the temperature range of 0 to 60° C., and the optimum pH was analyzed by 1-hour reactions in 50 mM sodium acetate (pH 2.0-6.0), 50 mM potassium phosphate (pH 7.0-10.0) and 50 mM sodium tetraborate (pH 10.0). As a control, 3 μg of the commercial protease Carlsberg subtilisin was used.

azocasein [8] = experiment: Stability of R-Pro21717 against temperature and pH; assay type: physicochemical; details: 1 hour at varying temperatures, then azocasein 30° C. 30 minutes
Description: as §2, §3

[9] = system: complex substrates including collagen and keratin; experiment: Substrate specificity of R-Pro21717, macro molecule substrates; assay type: biochemical

Cc1ccc(S(=O)(=O)N[C@@H](CCCCN)C(=O)CCl)cc1 [N^a-p-tosyp-L-lysine chloromethyl ketone]
Residual activity (%) (W-Pro21717 [1]): 137 ± 13%

O=C(O)CN(CCN(CC(=O)O)CC(=O)O)CC(=O)O [EDTA]
effect of inhibitor on the activity of W-Pro21717 (W-Pro21717 [1]): slightly inhibited
Residual activity (%) (W-Pro21717 [1]): 75 ± 9%

O=S(=O)(F)Cc1ccccc1 [PMSF]
effect of inhibitor on the activity of W-Pro21717 (W-Pro21717 [1]): inhibited
Residual activity (%) (W-Pro21717 [1]): 40 ± 8%

O=P([O-])([O-])[O-].[Fe+3] [Fe^2+, FePO4]
influence on the activity of W-Pro21717 (W-Pro21717 [2]): did not influence

CCN1C(=O)C=CC1=O [N-Ethylmaleimide]
Residual activity (%) (W-Pro21717 [1]): 107 ± 8%

[Cl-].[Na+] [Na^2+, NaCl]
influence on the activity of W-Pro21717 (W-Pro21717 [2]): did not influence

[Cl][Hg][Cl] [HgCl2]
effect of inhibitor on the activity of W-Pro21717 (W-Pro21717 [1]): inhibited
Residual activity (%) (W-Pro21717 [1]): 23 ± 8%

O=S(=O)([O-])[O-].[Mg+2] [Me, MgSO4]
influence on the activity of W-Pro21717 (W-Pro21717 [2]): did not influence

sodium linear alkylbenzene sulfonate [LAS]
stability of W-Pro21717 in the presence of standard detergent components (W-Pro21717 [2]): sufficient stability

CC(=O)N[C@@H](CC(C)C)C(=O)N[C@@H](CC(C)C)C(=O)N[C@H](C=O)CCCNC(=N)N [Leupeptin]
Residual activity (%) (W-Pro21717 [1]): 98 ± 2%

O=S(=O)([O-])[O-].[Cu+2] [CuSO4]
increase of the activity of W-Pro21717 (W-Pro21717 [2]): about 60%

APMA
Residual activity (%) (W-Pro21717 [1]): 131 ± 2%

O=S(=O)([O-])[O-].[Zn+2] [Zn^2+, ZnSO4]
influence on the activity of W-Pro21717 (W-Pro21717 [2]): did not influence

[Ba+2].[Cl-].[Cl-] [Ba^2+, BaCl2]
influence on the activity of W-Pro21717 (W-Pro21717 [2]): did not influence

NC(=O)CI [Iodoacetamide]
Residual activity (%) (W-Pro21717 [1]): 94 ± 3%

[Ca+2].[Cl-].[Cl-] [Ca^2+, CaCl2]
influence on the activity of W-Pro21717 (W-Pro21717 [2]): did not influence

[Cl-].[K+] [K^+, KCl]
influence on the activity of W-Pro21717 (W-Pro21717 [2]): did not influence

O=S(=O)([O-])[O-].[Na+].[Na+] [Na2SO4]
stability of W-Pro21717 in the presence of standard detergent components (W-Pro21717 [2]): sufficient stability

B1: Subtilisin Carlsberg: commercial protease used as control enzyme (protein, UniProt P00780 106-379, looked up)
Subtilisin Carlsberg: AQTVPYGIPLIKADKVQAQGFKGANVKVAVLDTGIQASHPDLNVVGGASFVAGEAYNTDGNGHGTHVAGTVAALDNTTGVLGVAPSVSLYAVKVLNSSGSGSYSGIVSGIEWATTNGMDVINMSLGGASGSTAMKQAVDNAYAKGVVVVAAAGNSGSSGNTNTIGYPAKYDSVIAVGAVDSNSNRASFSSVGAELEVMAPGAGVYSTYPTNTYATLNGTSMASPHVAGAAALILSKHPNLSASQVRNRLSSTATYLGSSFYYGKGLINVEAAAQ
Relative activity (%) ([3]; substrate AAA): 10.2 ± 1.9%
Relative activity (%) ([3]; substrate AAPF): 100%
Relative activity (%) ([3]; substrate AAPL): 57.1 ± 10.1%
Relative activity (%) ([3]; substrate AAV): 7.9 ± 3.9%
Relative activity (%) ([3]; substrate AAVA): 12.9 ± 0.6%
Relative activity (%) ([3]; substrate GGF): 16.2 ± 2.1%
Relative activity (%) ([3]; substrate TLV): 11.9 ± 1.1%
temperature optimal for the activity (azocasein [4]; 0˜70° C. tested): 60 °C
proteolytic activity at low temperature compared to 60° C. (azocasein [4]; printed 'at or'): did not show proteolytic activity
pH optimum and pH stability compared with R-Pro21717 (azocasein [4]; reaction temperature 40° C.): the same results as those of R-Pro21717
Relative activity (%) ([5]; substrate AAA): 1.5 ± 0.5%
Relative activity (%) ([5]; substrate AAPF): 100%
Relative activity (%) ([5]; substrate AAPL): 66.5 ± 0.1%
Relative activity (%) ([5]; substrate AAPL, listed as subtilisin Carlsberg): 68.3%
Relative activity (%) ([5]; substrate AAV): 2.6 ± 1.3%
Relative activity (%) ([5]; substrate AAVA): 11.7 ± 2.3%
Relative activity (%) ([5]; substrate GGF): 0%
Relative activity (%) ([5]; substrate TLV): 4.0 ± 3.7%
decrease in activity [6]: 80%
temperature optimal for the activity [7]: 60 °C
temperature at which stability / enzymatic activity decreases (azocasein [8]): ≥ 50 °C
Relative activity (%) ([9]; substrate Azocasein): 100%
Relative activity (%) ([9]; substrate Collagen): 6.7 ± 1.2%
Relative activity (%) ([9]; substrate Keratin): 30.2 ± 5.6%
Relative activity (%) ([9]; substrate Skim milk): 67.7 ± 5.7%
